Assay results reported in publication PMC3167627.

Target: Mcm2EE-7 S164E;S170E (Saccharomyces cerevisiae) (UniProt P29469+P24279+P30665+P29496+P53091+P38132)
Assay: gel filtration

Substance: M13mp19 circular ssDNA
- binding signal (fold bound vs Mcm2WT-7 at 0.5 nM ssDNA): > 3
